Key:
[1] = tested on: GIPR variants (groups); assay: cAMP accumulation; type: cell-based, human; conditions: for In vitro groups (cAMP): cAMP part of the in vitro group; for percentage_camp: cAMP production compared with WT; for Beta, cAMP: in vitro cAMP production per GIPR variant
[2] = tested on: GIPR variants (groups); assay: β-arrestin 2 recruitment (BRET); conditions: for In vitro groups (β-arrestin): arr part of the in vitro group; for Beta, Barr: in vitro β-arrestin recruitment per GIPR variant;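 as to all read-outs here: BRET readout of β-arrestin 2 recruitment in transiently transfected HEK293 cells expressing WT GIPR or a GIPR variant plus GPCR kinase 2, Rluc8 donor and citrine acceptor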
[3] = target: T1, GIPR A207V (Homo sapiens, UniProt P48546, A207V); assay: cAMP accumulation; type: cell-based
T1 construct: host or cells: HEK293
T1 sequence (P48546 22-466 A207V): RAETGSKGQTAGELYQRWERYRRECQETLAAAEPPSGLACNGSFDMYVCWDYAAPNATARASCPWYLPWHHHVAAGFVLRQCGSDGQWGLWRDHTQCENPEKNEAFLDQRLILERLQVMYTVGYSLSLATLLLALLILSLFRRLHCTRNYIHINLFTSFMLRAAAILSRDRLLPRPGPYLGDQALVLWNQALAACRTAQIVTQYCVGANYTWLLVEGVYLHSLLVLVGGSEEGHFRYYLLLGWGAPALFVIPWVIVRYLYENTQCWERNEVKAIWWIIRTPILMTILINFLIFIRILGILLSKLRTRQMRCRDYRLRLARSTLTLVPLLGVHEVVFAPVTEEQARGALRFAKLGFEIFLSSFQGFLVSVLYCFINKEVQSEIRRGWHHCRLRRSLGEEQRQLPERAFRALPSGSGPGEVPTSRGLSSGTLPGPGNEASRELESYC
Protocol: (§1) HEK293 (CRL-1573, American Type Culture Collection) and β-arrestin 1/2 knockout cells, generated from HEK293A[48], were used for cAMP measurement, homologues competition binding and β-arrestin 2 recruitment. […] Both cell lines were cultured at 5% CO2 at 37 °C in Roswell Park Memorial Institute GlutaMAX-I supplemented with 10% fetal bovine serum, 180 units ml^−1 penicillin, and 45 g ml^−1 streptomycin. For the cAMP and binding experiments, cells were transfected with the calcium phosphate precipitation method[49].
(§2) cAMP production was measured with the DiscoverX Hithunter cAMP assay according to the manufacturer’s protocol (DiscoverX). […] On the day of the assay, the cells were washed twice with HEPES-buffered saline (HBS) and incubated with HBS and 1 mM 3-isobutyl-1-methylxanthine for 30 min at 37 °C. […] After the incubation, the assay medium was removed from the plate and the cells were washed with 30 µl PBS and treated with 40 µl enzyme donor–lysis buffer–chemiluminescent reagents and 10 µl cAMP antibodies for 60 min before 40 µl enzyme acceptor solution added. After a 3-h incubation on a shaking table in the dark, the cAMP accumulation was measured based on luminescence with a Perkin Elmer EnVision 2104 Multilabel Microplate Reader.

[4] = target: T2, GIPR I221M (Homo sapiens, UniProt P48546, I221M); assay: cAMP accumulation; type: cell-based
T2 construct: host or cells: HEK293
T2 sequence (P48546 22-466 I221M): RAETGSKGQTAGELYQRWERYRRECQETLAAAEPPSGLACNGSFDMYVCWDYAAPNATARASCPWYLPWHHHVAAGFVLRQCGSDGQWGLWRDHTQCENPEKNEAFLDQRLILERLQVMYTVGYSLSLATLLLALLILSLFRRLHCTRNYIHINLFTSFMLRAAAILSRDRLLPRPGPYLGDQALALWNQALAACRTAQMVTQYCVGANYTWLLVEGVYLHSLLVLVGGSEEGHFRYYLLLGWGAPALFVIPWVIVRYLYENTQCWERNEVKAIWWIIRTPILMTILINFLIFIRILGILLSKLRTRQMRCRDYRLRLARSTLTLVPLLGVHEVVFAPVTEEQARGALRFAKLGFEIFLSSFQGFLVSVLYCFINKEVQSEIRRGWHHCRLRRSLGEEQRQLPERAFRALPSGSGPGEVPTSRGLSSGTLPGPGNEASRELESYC
Protocol: as §1, §2

[5] = target: T3, GIPR W233* (Homo sapiens, UniProt P48546); assay: cAMP accumulation; type: cell-based
T3 construct: host or cells: HEK293
T3 sequence (P48546 22-232 limits assumed): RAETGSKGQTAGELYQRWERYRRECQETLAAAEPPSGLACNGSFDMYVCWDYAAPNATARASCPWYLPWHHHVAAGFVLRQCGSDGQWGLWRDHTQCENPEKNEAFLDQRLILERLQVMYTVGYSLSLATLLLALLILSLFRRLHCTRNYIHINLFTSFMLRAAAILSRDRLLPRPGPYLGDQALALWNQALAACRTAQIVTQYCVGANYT
Protocol: as §1, §2

[6] = target: T4, GIPR L261H (Homo sapiens, UniProt P48546, L261H); assay: cAMP accumulation; type: cell-based
T4 construct: host or cells: HEK293
T4 sequence (P48546 22-466 L261H): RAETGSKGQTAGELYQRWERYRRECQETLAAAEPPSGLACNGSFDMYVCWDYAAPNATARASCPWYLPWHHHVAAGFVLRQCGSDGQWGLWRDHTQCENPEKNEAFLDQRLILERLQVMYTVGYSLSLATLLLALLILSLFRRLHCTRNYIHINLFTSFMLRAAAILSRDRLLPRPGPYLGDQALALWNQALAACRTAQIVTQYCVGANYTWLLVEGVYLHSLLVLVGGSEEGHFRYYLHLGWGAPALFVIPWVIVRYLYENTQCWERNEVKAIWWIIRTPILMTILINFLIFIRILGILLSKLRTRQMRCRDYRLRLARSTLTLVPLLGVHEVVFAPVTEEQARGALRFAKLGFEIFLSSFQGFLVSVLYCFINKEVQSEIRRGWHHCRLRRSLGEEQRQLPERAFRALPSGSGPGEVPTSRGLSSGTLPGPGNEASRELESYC
Protocol: as §1, §2

[7] = target: T5, GIPR E288G (Homo sapiens, UniProt P48546, E288G); assay: cAMP accumulation; type: cell-based
T5 construct: host or cells: HEK293
T5 sequence (P48546 22-466 E288G): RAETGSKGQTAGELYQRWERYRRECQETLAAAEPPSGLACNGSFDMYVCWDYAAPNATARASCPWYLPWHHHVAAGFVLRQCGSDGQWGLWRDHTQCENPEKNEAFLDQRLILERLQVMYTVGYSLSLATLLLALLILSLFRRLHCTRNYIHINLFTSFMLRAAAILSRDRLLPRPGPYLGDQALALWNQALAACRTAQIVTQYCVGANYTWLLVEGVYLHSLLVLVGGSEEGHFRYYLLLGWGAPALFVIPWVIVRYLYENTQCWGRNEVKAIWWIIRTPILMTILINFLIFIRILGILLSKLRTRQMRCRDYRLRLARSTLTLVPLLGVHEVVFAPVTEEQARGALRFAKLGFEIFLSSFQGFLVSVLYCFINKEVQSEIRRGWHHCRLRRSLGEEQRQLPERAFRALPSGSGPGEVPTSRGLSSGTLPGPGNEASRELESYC
Protocol: as §1, §2

[8] = target: T6, GIPR E291K (Homo sapiens, UniProt P48546, E291K); assay: cAMP accumulation; type: cell-based
T6 construct: host or cells: HEK293
T6 sequence (P48546 22-466 E291K): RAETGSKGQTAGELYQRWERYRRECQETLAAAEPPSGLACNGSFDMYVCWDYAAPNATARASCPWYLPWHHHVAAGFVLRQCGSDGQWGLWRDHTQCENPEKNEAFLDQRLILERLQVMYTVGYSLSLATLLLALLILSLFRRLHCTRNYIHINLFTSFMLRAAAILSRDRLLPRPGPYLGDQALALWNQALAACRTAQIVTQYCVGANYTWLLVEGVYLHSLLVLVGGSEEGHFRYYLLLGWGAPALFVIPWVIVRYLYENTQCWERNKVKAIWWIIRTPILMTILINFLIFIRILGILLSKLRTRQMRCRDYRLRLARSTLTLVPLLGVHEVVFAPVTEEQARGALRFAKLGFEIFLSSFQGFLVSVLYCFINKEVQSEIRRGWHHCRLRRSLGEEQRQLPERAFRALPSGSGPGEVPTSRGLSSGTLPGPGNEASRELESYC
Protocol: as §1
cAMP production was measured with the DiscoverX Hithunter cAMP assay according to the manufacturer’s protocol (DiscoverX). […] On the day of the assay, the cells were washed twice with HEPES-buffered saline (HBS) and incubated with HBS and 1 mM 3-isobutyl-1-methylxanthine for 30 min at 37 °C. […] After the incubation, the assay medium was removed from the plate and the cells were washed with 30 µl PBS and treated with 40 µl enzyme donor–lysis buffer–chemiluminescent reagents and 10 µl cAMP antibodies for 60 min before 40 µl enzyme acceptor solution added. After a 3-h incubation on a shaking table in the dark, the cAMP accumulation was measured based on luminescence with a Perkin Elmer EnVision 2104 Multilabel Microplate Reader. […]

B1: A207V (protein)
chain: RAETGSKGQTAGELYQRWERYRRECQETLAAAEPPSGLACNGSFDMYVCWDYAAPNATARASCPWYLPWHHHVAAGFVLRQCGSDGQWGLWRDHTQCENPEKNEAFLDQRLILERLQVMYTVGYSLSLATLLLALLILSLFRRLHCTRNYIHINLFTSFMLRAAAILSRDRLLPRPGPYLGDQALVLWNQALAACRTAQIVTQYCVGANYTWLLVEGVYLHSLLVLVGGSEEGHFRYYLLLGWGAPALFVIPWVIVRYLYENTQCWERNEVKAIWWIIRTPILMTILINFLIFIRILGILLSKLRTRQMRCRDYRLRLARSTLTLVPLLGVHEVVFAPVTEEQARGALRFAKLGFEIFLSSFQGFLVSVLYCFINKEVQSEIRRGWHHCRLRRSLGEEQRQLPERAFRALPSGSGPGEVPTSRGLSSGTLPGPGNEASRELESYC
- In vitro groups (cAMP) [1]: LoF_camp
- percentage_camp [1]: <50% cAMP
- Beta, cAMP [1]: 0.1592
- In vitro groups (β-arrestin) [2]: WT-like_arr
- Beta, Barr [2]: 0.8334
- Efficacy at 100pmol (cAMP) [3]: 0.1592

B2: I221M (protein)
chain: RAETGSKGQTAGELYQRWERYRRECQETLAAAEPPSGLACNGSFDMYVCWDYAAPNATARASCPWYLPWHHHVAAGFVLRQCGSDGQWGLWRDHTQCENPEKNEAFLDQRLILERLQVMYTVGYSLSLATLLLALLILSLFRRLHCTRNYIHINLFTSFMLRAAAILSRDRLLPRPGPYLGDQALALWNQALAACRTAQMVTQYCVGANYTWLLVEGVYLHSLLVLVGGSEEGHFRYYLLLGWGAPALFVIPWVIVRYLYENTQCWERNEVKAIWWIIRTPILMTILINFLIFIRILGILLSKLRTRQMRCRDYRLRLARSTLTLVPLLGVHEVVFAPVTEEQARGALRFAKLGFEIFLSSFQGFLVSVLYCFINKEVQSEIRRGWHHCRLRRSLGEEQRQLPERAFRALPSGSGPGEVPTSRGLSSGTLPGPGNEASRELESYC
- In vitro groups (cAMP) [1]: WT-like_camp
- percentage_camp [1]: >50% cAMP
- Beta, cAMP [1]: 0.8221
- In vitro groups (β-arrestin) [2]: LoF_arr
- Beta, Barr [2]: 0.1962
- Efficacy at 100pmol (cAMP) [4]: 0.8221

B3: W233* (protein)
chain: RAETGSKGQTAGELYQRWERYRRECQETLAAAEPPSGLACNGSFDMYVCWDYAAPNATARASCPWYLPWHHHVAAGFVLRQCGSDGQWGLWRDHTQCENPEKNEAFLDQRLILERLQVMYTVGYSLSLATLLLALLILSLFRRLHCTRNYIHINLFTSFMLRAAAILSRDRLLPRPGPYLGDQALALWNQALAACRTAQIVTQYCVGANYT
- Efficacy at 100pmol (cAMP) [5]: 0.06458
- In vitro groups (cAMP) [1]: LoF_camp
- percentage_camp [1]: <50% cAMP
- In vitro groups (β-arrestin) [2]: LoF_arr

B4: L261H (protein)
chain: RAETGSKGQTAGELYQRWERYRRECQETLAAAEPPSGLACNGSFDMYVCWDYAAPNATARASCPWYLPWHHHVAAGFVLRQCGSDGQWGLWRDHTQCENPEKNEAFLDQRLILERLQVMYTVGYSLSLATLLLALLILSLFRRLHCTRNYIHINLFTSFMLRAAAILSRDRLLPRPGPYLGDQALALWNQALAACRTAQIVTQYCVGANYTWLLVEGVYLHSLLVLVGGSEEGHFRYYLHLGWGAPALFVIPWVIVRYLYENTQCWERNEVKAIWWIIRTPILMTILINFLIFIRILGILLSKLRTRQMRCRDYRLRLARSTLTLVPLLGVHEVVFAPVTEEQARGALRFAKLGFEIFLSSFQGFLVSVLYCFINKEVQSEIRRGWHHCRLRRSLGEEQRQLPERAFRALPSGSGPGEVPTSRGLSSGTLPGPGNEASRELESYC
- In vitro groups (cAMP) [1]: LoF_camp
- percentage_camp [1]: <50% cAMP
- Beta, cAMP [1]: 0.4533
- In vitro groups (β-arrestin) [2]: LoF_arr
- Beta, Barr [2]: 0
- Efficacy at 100pmol (cAMP) [6]: 0.4533

B5: E288G (protein)
chain: RAETGSKGQTAGELYQRWERYRRECQETLAAAEPPSGLACNGSFDMYVCWDYAAPNATARASCPWYLPWHHHVAAGFVLRQCGSDGQWGLWRDHTQCENPEKNEAFLDQRLILERLQVMYTVGYSLSLATLLLALLILSLFRRLHCTRNYIHINLFTSFMLRAAAILSRDRLLPRPGPYLGDQALALWNQALAACRTAQIVTQYCVGANYTWLLVEGVYLHSLLVLVGGSEEGHFRYYLLLGWGAPALFVIPWVIVRYLYENTQCWGRNEVKAIWWIIRTPILMTILINFLIFIRILGILLSKLRTRQMRCRDYRLRLARSTLTLVPLLGVHEVVFAPVTEEQARGALRFAKLGFEIFLSSFQGFLVSVLYCFINKEVQSEIRRGWHHCRLRRSLGEEQRQLPERAFRALPSGSGPGEVPTSRGLSSGTLPGPGNEASRELESYC
- In vitro groups (cAMP) [1]: LoF_camp
- percentage_camp [1]: <50% cAMP
- Beta, cAMP [1]: 0.04101
- In vitro groups (β-arrestin) [2]: LoF_arr
- Beta, Barr [2]: 0.09099
- Efficacy at 100pmol (cAMP) [7]: 0.04101

B6: E291K (protein)
chain: RAETGSKGQTAGELYQRWERYRRECQETLAAAEPPSGLACNGSFDMYVCWDYAAPNATARASCPWYLPWHHHVAAGFVLRQCGSDGQWGLWRDHTQCENPEKNEAFLDQRLILERLQVMYTVGYSLSLATLLLALLILSLFRRLHCTRNYIHINLFTSFMLRAAAILSRDRLLPRPGPYLGDQALALWNQALAACRTAQIVTQYCVGANYTWLLVEGVYLHSLLVLVGGSEEGHFRYYLLLGWGAPALFVIPWVIVRYLYENTQCWERNKVKAIWWIIRTPILMTILINFLIFIRILGILLSKLRTRQMRCRDYRLRLARSTLTLVPLLGVHEVVFAPVTEEQARGALRFAKLGFEIFLSSFQGFLVSVLYCFINKEVQSEIRRGWHHCRLRRSLGEEQRQLPERAFRALPSGSGPGEVPTSRGLSSGTLPGPGNEASRELESYC
- In vitro groups (cAMP) [1]: LoF_camp
- percentage_camp [1]: <50% cAMP
- Beta, cAMP [1]: 0.3479
- In vitro groups (β-arrestin) [2]: LoF_arr
- Beta, Barr [2]: 0.1982
- Efficacy at 100pmol (cAMP) [8]: 0.3479

Source: PMC11272584 (Nature Metabolism, 2024)
